Experimental data: patent US20060287509A1 (University of California, published 2006)
Positions count from the first letter of the chain named.

B1: C6ML3-9 (scFv)
scFv: QVQLLQSGAELKKPGESLKISCKGSGYSFTSYWIAWVRQMPGKGLEYMGLIYPGDSDTKYSPSFQGQVTISVDKSVSTAYLQWSSLKPSDSAVYFCARHDVGYCSSSNCAKWPEYFQHWGQGTLVTVSSGGGGSGGGGSGGGGSQSVLTQPPSVSAAPGQKVTISCSGSSSNIGNNYVSWYQQLPGTAPKLLIYGHTNRPAGVPDRFSGSKSGTSASLAISGFRSEDEADYYCASWDYTLSGWVFGGGTKLTVLG
notes: C6.5 with this VL CDR3; C-terminal myc and His6 tags; parent of the VH CDR3 libraries; also called C6ML3-9 (wt); wt C6ML3-9
B2: C6ML3-5 (scFv)
scFv: B1 scFv with S235A, T239S
notes: C6.5 with this VL CDR3; C-terminal myc and His6 tags

Experiments:
[1] = target: T1, c-erbB-2 ECD with a Ser-Gly-His6 C-terminal fusion (UniProt P04626 23-652); test: SPR (BIAcore)
T1 construct: extracellular domain; expressed from CHO cells, IMAC purified; coupled to a CM5 chip, adsorbed to polystyrene, or biotinylated and captured on avidin; also called c-erbB-2 extracellular domain; biotinylated c-erbB-2 ECD

[2] = target: T2, c-erbB-2 expressed on cells (SK-OV-3, SK-BR-3) (UniProt P04626 23-1255, limits assumed); test: FACS, biotinylated sFv on SK-OV-3 cells
T2 construct: whole, on cells; also called native c-erbB-2 expressed on cells

[3] = target: T1, c-erbB-2 ECD with a Ser-Gly-His6 …; test: SPR (BIAcore); remark: listed apart in the source
[4] = target: T1, c-erbB-2 ECD with a Ser-Gly-His6 …; test: SPR (BIAcore); clone eluted with 1 µM c-erbB-2 ECD

Binder	kon [1]	half life (t1/2) on the cell surface [2]	fold increase in affinity vs wild-type sFv (C6.5) [3]	koff [4]
B1	610000 M⁻¹ s⁻¹	11 min	16 fold	–
B2	590000 M⁻¹ s⁻¹	–	–	0.0019 s⁻¹
